Test results reported in article PMC4191399.
Changes are numbered by the printed parent chain.

What was measured:
Assay in all cases: fluorescence polarization
Details in all cases: internal 6-carboxyfluorescein in backbone between U12 and C13 (central tetraloop bases); 25 mM MOPS pH 7.4, 150 mM KCl, 2 mM DTT, 2 mM MgCl2, 0.01% Triton X-100, 1 nM RNA, room temperature, 1 h
[1] = target: T1, RIG-I K788A/R791A K788A;R791A (Homo sapiens) (UniProt O95786)
T1 sequence: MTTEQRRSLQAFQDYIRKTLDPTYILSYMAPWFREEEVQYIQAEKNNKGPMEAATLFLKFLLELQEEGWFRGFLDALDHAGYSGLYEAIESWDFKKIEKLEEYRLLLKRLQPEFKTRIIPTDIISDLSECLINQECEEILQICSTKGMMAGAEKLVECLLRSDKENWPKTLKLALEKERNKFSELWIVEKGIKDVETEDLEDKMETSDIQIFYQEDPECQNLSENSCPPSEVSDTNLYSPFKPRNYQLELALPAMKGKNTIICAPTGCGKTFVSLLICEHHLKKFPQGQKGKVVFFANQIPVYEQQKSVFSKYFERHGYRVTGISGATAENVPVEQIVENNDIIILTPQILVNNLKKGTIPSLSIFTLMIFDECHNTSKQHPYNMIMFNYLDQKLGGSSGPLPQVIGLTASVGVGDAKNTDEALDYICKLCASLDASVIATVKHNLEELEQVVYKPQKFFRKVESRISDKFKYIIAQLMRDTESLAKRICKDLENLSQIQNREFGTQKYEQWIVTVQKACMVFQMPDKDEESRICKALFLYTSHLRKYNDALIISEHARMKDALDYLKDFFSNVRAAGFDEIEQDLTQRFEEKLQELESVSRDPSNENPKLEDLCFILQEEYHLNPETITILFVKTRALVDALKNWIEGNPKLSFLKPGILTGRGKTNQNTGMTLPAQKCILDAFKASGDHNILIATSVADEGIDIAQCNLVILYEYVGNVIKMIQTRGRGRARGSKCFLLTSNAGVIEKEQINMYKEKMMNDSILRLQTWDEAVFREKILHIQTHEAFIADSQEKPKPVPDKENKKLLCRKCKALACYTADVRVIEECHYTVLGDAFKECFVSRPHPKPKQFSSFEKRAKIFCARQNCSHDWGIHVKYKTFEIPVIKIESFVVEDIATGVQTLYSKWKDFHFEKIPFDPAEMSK

RIG-I WT (Homo sapiens) = target: T2, RIG-I WT (Homo sapiens) (UniProt O95786)
T2 sequence: T1 sequence with A788K, A791R

[2] = target: T3, RIG-I Q784A/K788A/R791A Q784A;K788A;R791A (Homo sapiens) (UniProt O95786)
T3 sequence: T1 sequence with Q784A

GGACGUACGUUUCGACGUACGUCC [5'OH10L-F]
Kd [1]: 166 nM
Kd (RIG-I WT (Homo sapiens)): 25 nM
Kd [2]: 172 nM
